B1: POU domain, class 4, transcription factor 3, residues 185 to 256; numbered along this chain, Q15319 (parent)
chain: RELEAFAERFKQRRIKLGVTQADVGAALANLKIPGVGSLSQSTICRFESLTLSHNNMIALKPVLQAWLEEAE

This passage reports abundance fitness results from the Human Domainome abundance scans (Beltran et al. 2025).

± gives the uncertainty stated by the source.

The series covers variants of B1. Briefly: abundance fitness (aPCA) (normalised: wild type 0, dead -1); higher = more abundant; growth selection in yeast, the domain comes from the species named. The note with it: Homo sapiens.
On to Q12G, for which the abundance fitness was -0.377 ± 0.2.
For Q12N the value was 0.189 ± 0.12; for Q12Y, 0.121 ± 0.24; for Q12D, 0.012 ± 0.17.
Turning to Q12R, the abundance fitness was -0.187 ± 0.068.
For Q12K the value was -0.115 ± 0.062.
The same measure for Q12P: -1.02 ± 0.17.
For E70K the value was -0.03 ± 0.053; for E70R, -0.036 ± 0.033; for E70H, -0.014 ± 0.064.
With E70C, the abundance fitness was -0.271 ± 0.045.
For E70D the value was -0.118 ± 0.069; for E70M, -0.253 ± 0.048.
For E70L the value was -0.323 ± 0.029; for E70I, -0.348 ± 0.054; for E70Y, -0.245 ± 0.06.
The same measure for N30W: 0.007 ± 0.19; for N30M: -0.239 ± 0.12; for N30G: -0.058 ± 0.12.
As to N30H, the abundance fitness was -0.051 ± 0.16.
For N30P the value was -0.267 ± 0.058.
For N30L the value was -0.279 ± 0.049; for N30C, -0.261 ± 0.15.
The same measure for N30V: -0.177 ± 0.046.
On to A71Y, for which the abundance fitness was -0.064 ± 0.041.
In the case of A71R, the abundance fitness is -0.005 ± 0.043.
For G37W the value was -0.669 ± 0.26; for G37R, -0.063 ± 0.054.
Consider G37Y, for which the abundance fitness worked out at 0.024 ± 0.43.
For G37V the value was -0.039 ± 0.074; for G37Q, 0.003 ± 0.057; for G37K, -0.018 ± 0.036.
For G37E the value was 0.038 ± 0.057.
Regarding G37M, the abundance fitness is -0.153 ± 0.18.
The same measure for S42K: 0.046 ± 0.11; for S42Q: 0.017 ± 0.07.
For S42T the value was -0.116 ± 0.079; for V19Y, -0.01 ± 0.066; for V19M, 0.12 ± 0.058.
For V19G, the abundance fitness is -0.391 ± 0.25.
The same measure for R1K: -0.226 ± 0.11; for R1N: -0.153 ± 0.2; for R1S: -0.109 ± 0.084.
For A26F the value was -0.113 ± 0.046.
As for A26V, the abundance fitness was -0.069 ± 0.026.
The same measure for A26I: -0.133 ± 0.068.
For A26D the value was -0.01 ± 0.052.
The same measure for A26N: -0.041 ± 0.053; for A26G: -0.15 ± 0.03; for A26R: -0.017 ± 0.028.
For the variant A26Q, the abundance fitness is -0.029 ± 0.045.
The same measure for W67I: -0.752 ± 0.17.
The same measure for W67C: -0.496 ± 0.22; for W67N: -0.491 ± 0.16.
Take D23K: the abundance fitness is -0.121 ± 0.19.
The same measure for D23M: -0.135 ± 0.11.
For D23Y the value was -0.411 ± 0.16.
For D23G the value was -0.246 ± 0.49; for F47G, -1.01 ± 0.23; for F47P, -1.02 ± 0.13.
Consider F47Q, for which the abundance fitness was -0.875 ± 0.13.
The same measure for F47N: -1.09 ± 0.27; for F47S: -0.747 ± 0.081.
Turning to F47C, the abundance fitness was -0.982 ± 0.15.
As to C45Y, the abundance fitness is -0.01 ± 0.059.
For C45M the value was -0.048 ± 0.083; for C45Q, 0.003 ± 0.063; for C45P, -0.25 ± 0.05.
The same measure for C45N: -0.007 ± 0.094; for C45T: 0.012 ± 0.064; for C45S: -0.042 ± 0.053.
For L50Q the value was 0.124 ± 0.07; for L50D, -0.139 ± 0.3; for L50T, -0.101 ± 0.027.
As to E69W, the abundance fitness is -0.232 ± 0.048.
The same measure for E69A: 0.04 ± 0.048.
For E69P the value was -0.672 ± 0.058; for E69C, 0.006 ± 0.073; for E69I, -0.106 ± 0.059.
The same measure for E69Q: -0.091 ± 0.061.
Regarding E69H, the abundance fitness was -0.332 ± 0.15.
E69L: the abundance fitness was -0.097 ± 0.027.
The same measure for R14L: -0.805 ± 0.058.
For R14A the value was -1.1 ± 0.18.
For R14I the value was -0.656 ± 0.19; for R14G, -0.951 ± 0.13; for R14F, -1.11 ± 0.22.
On to R14D, for which the abundance fitness was -0.454 ± 0.16.
For K61P the value was -1.12 ± 0.18; for K61L, -0.217 ± 0.044.
For K61N the value was -0.658 ± 0.092; for K61H, -0.105 ± 0.062.
With K61T, the abundance fitness is -0.061 ± 0.058.
The same measure for K61F: -0.36 ± 0.055; for E4I: 0.113 ± 0.077; for E4N: -0.11 ± 0.096.
The same measure for E4C: -0.17 ± 0.061.
The same measure for E4R: 0.041 ± 0.11; for A27T: 0.205 ± 0.26.
Take A27C: the abundance fitness was -0.266 ± 0.076.
Turning to A27W, the abundance fitness is -0.202 ± 0.059.
The same measure for A27V: -0.139 ± 0.047; for S40W: -0.42 ± 0.23; for S40C: -0.066 ± 0.12.
The same measure for S40Y: -0.422 ± 0.079; for S40A: -0.222 ± 0.07.
Turning to S40D, the abundance fitness stood at 0.037 ± 0.22.
On to E2H, for which the abundance fitness is -0.221 ± 0.17.
The same measure for E2D: 0.075 ± 0.03.
For E2N the value was -0.207 ± 0.14; for T20K, -0.183 ± 0.031; for T20P, -0.273 ± 0.026.
For T20N the value was -0.318 ± 0.089.
With T20E, the abundance fitness is -0.18 ± 0.043.
The same measure for L28F: -0.239 ± 0.2.
For L28V the value was -0.126 ± 0.079; for L28C, -0.443 ± 0.21.
For L28N the value was -0.623 ± 0.12; for L28G, -0.813 ± 0.22; for L28M, -0.095 ± 0.15.
Regarding L39G, the abundance fitness is -0.912 ± 0.23.
The same measure for L39V: 0.034 ± 0.15; for L39R: -0.606 ± 0.15.
The same measure for L39D: -0.304 ± 0.16; for A66V: -0.429 ± 0.2.
The same measure for A66L: -0.048 ± 0.33; for A66P: -0.65 ± 0.14; for P62L: -0.53 ± 0.028.
Turning to P62D, the abundance fitness is -0.413 ± 0.081.
The same measure for P62S: -0.188 ± 0.031.
For the variant P62F, the abundance fitness is -0.461 ± 0.058.
For P62R the value was -0.376 ± 0.036; for P62A, -0.376 ± 0.043.
For P62I the value was -0.753 ± 0.1.
The same measure for L60R: -0.845 ± 0.25.
Regarding L60K, the abundance fitness is -0.859 ± 0.3.
The same measure for A7G: -0.646 ± 0.031; for A7T: -0.235 ± 0.063.
A7C: the abundance fitness is -0.124 ± 0.055.
The same measure for A7I: -0.083 ± 0.2; for A7N: -0.927 ± 0.27; for A7F: -0.649 ± 0.1.
For N56S the value was 0.089 ± 0.13; for N56K, -0.109 ± 0.24; for N56D, -0.355 ± 0.41.
The same measure for N56W: 0.101 ± 0.21.
Consider N56T, for which the abundance fitness is -0.588 ± 0.43.
The same measure for Q65H: -0.076 ± 0.2; for Q65L: -0.486 ± 0.17.
The same measure for Q65R: -0.252 ± 0.16; for Q65D: -0.065 ± 0.15; for R13Y: -0.133 ± 0.074.
The same measure for R13D: -0.234 ± 0.12; for R13I: 0.05 ± 0.12; for R13E: -0.075 ± 0.066.
For R13S, the abundance fitness came out at 0.08 ± 0.049.
For R13T the value was 0.108 ± 0.072.
The same measure for R13K: -0.019 ± 0.067.
For R13M the value was -0.094 ± 0.062; for R13P, -0.938 ± 0.28; for R13L, -0.139 ± 0.037.
Take A59S: the abundance fitness was -0.514 ± 0.4.
As to A59G, the abundance fitness was -0.085 ± 0.18.
With R9E, the abundance fitness was 0.033 ± 0.075.
For R9P the value was -0.642 ± 0.48.
R9H: the abundance fitness is -0.018 ± 0.1.
The same measure for R9T: 0.016 ± 0.054.
